What was measured:
[1] = biological target: HLA-B*40:01; assay: IEDB peptide-MHC binding, purified MHC/competitive/fluorescence; filed as Kd, often an IC50 or EC50 that approximates it; ≥ and ≤ were set here for values at or beyond the usual limits of such assays
[2] = biological target: HLA-B*15:01; assay: as above
[3] = biological target: HLA-B*08:01; assay: IEDB peptide-MHC binding, purified MHC/competitive/fluorescence; ≥ and ≤ were set here for values at or beyond the usual limits of such assays
[4] = biological target: HLA-A*02:12; assay: IEDB peptide-MHC binding, purified MHC/competitive/fluorescence; filed as Kd, often an IC50 or EC50 that approximates it; ≥ and ≤ were set here for values at or beyond the usual limits of such assays
[5] = biological target: HLA-A*02:16; assay: as above
[6] = biological target: HLA-A*02:11; assay: as above
[7] = biological target: HLA-A*02:03; assay: as above
[8] = biological target: HLA-A*69:01; assay: as above
[9] = biological target: HLA-A*02:01; assay: as above
[10] = biological target: HLA-A*02:19; assay: as above
[11] = biological target: HLA-A*30:01; assay: IEDB peptide-MHC binding, purified MHC/competitive/radioactivity; filed as Kd, often an IC50 or EC50 that approximates it; ≥ and ≤ were set here for values at or beyond the usual limits of such assays; conditions: source organism: Vaccinia virus WR
[12] = biological target: HLA-A*80:01; assay: IEDB peptide-MHC binding, purified MHC/direct/fluorescence; filed as Kd, often an IC50 or EC50 that approximates it; ≥ and ≤ were set here for values at or beyond the usual limits of such assays; conditions: source organism: Orthohantavirus andesense
[13] = biological target: HLA-A*01:01; assay: as above; conditions: source organism: Orthohantavirus andesense
[14] = biological target: HLA-A*24:02; assay: IEDB peptide-MHC binding, purified MHC/competitive/fluorescence; ≥ and ≤ were set here for values at or beyond the usual limits of such assays
[15] = biological target: HLA-A*31:01; assay: IEDB peptide-MHC binding, purified MHC/competitive/fluorescence; filed as Kd, often an IC50 or EC50 that approximates it; ≥ and ≤ were set here for values at or beyond the usual limits of such assays; conditions: source organism: Bacillus anthracis str. A0488
[16] = biological target: HLA-B*39:01; assay: as above
[17] = biological target: HLA-A*68:02; assay: as above
[18] = biological target: HLA-B*57:01; assay: as above
[19] = biological target: HLA-B*51:01; assay: as above
[20] = biological target: HLA-B*18:01; assay: as above
[21] = biological target: HLA-B*46:01; assay: as above
[22] = biological target: HLA-A*24:03; assay: as above
[23] = biological target: HLA-B*27:03; assay: as above
[24] = biological target: HLA-A*26:01; assay: as above
[25] = biological target: HLA-A*03:01; assay: as above; conditions: source organism: Cryptosporidium parvum Iowa II
[26] = biological target: HLA-B*15:17; assay: as above; conditions: source organism: Cryptosporidium parvum Iowa II
[27] = biological target: HLA-A*29:02; assay: as above; conditions: source organism: Cryptosporidium parvum Iowa II
[28] = biological target: HLA-B*07:02; assay: IEDB peptide-MHC binding, purified MHC/competitive/fluorescence; ≥ and ≤ were set here for values at or beyond the usual limits of such assays; conditions: source organism: Vaccinia virus WR
[29] = source organism: Escherichia coli E22
[30] = source organism: Human immunodeficiency virus 1
[31] = source organism: Bacillus anthracis str. A0488
[32] = source organism: Cryptosporidium parvum Iowa II
[33] = source organism: Vaccinia virus WR

For DEIAFGLKL, the Kd [1, 29] was 3 µM and the Kd [2, 29] was no less than 20 µM.

With FLKIKVTAA the IC50 ([3]; source organism: Vaccinia virus Copenhagen) was 15.6 µM.

In the case of GLGQYIYET, the Kd [4, 30] is reported as 0.039 µM, the Kd [5, 30] is reported as 0.000819 µM and the Kd [6, 30] is reported as 0.0322 µM. The Kd [7, 30] was 0.294 µM, the Kd [8, 30] was no less than 20 µM and the Kd [9, 30] was 0.14 µM. It also gave a Kd [10, 30] of 0.254 µM.

HFKPPKFRA was tested, and the Kd [11] was 0.00886 µM and the IC50 ([3]; source organism: Vaccinia virus) was no less than 150 µM.

Work on HSDDALFIY yielded a Kd [12] of 16 µM and a Kd [13] of no less than 20 µM.

For IAVARKHHT, the IC50 ([14]; source organism: Variola virus) was 49.4 µM and the IC50 ([3]; source organism: Variola virus) was no less than 91.6 µM.

IEIARTLTL showed a Kd ([1]; source organism: Salmonella enterica subsp. enterica serovar Typhi) of 0.0108 µM.

IQKGMFVVK was tested, and the Kd [15] was 0.0158 µM, the Kd [16, 31] was no less than 20 µM and the Kd [4, 31] was no less than 20 µM. The Kd [17, 31] was no less than 20 µM, the Kd [18, 31] was no less than 20 µM and the Kd [19, 31] was no less than 20 µM. For the same sequence, the Kd [5, 31] was no less than 20 µM, the Kd [6, 31] was no less than 20 µM and the Kd [20, 31] was no less than 20 µM. For the same sequence, the Kd [21, 31] was no less than 20 µM, the Kd [22, 31] was no less than 20 µM and the Kd [7, 31] was no less than 20 µM. The Kd [23, 31] was no less than 20 µM, the Kd [8, 31] was no less than 20 µM and the Kd [9, 31] was no less than 20 µM. For the same sequence, the Kd [24, 31] was no less than 20 µM and the Kd [10, 31] was no less than 20 µM.

Work on KLYLRPWWH yielded a Kd [16, 32] of no less than 20 µM, a Kd [4, 32] of no less than 20 µM and a Kd [17, 32] of no less than 20 µM. It also gave a Kd [18, 32] of no less than 20 µM, a Kd [19, 32] of no less than 20 µM and a Kd [5, 32] of no less than 20 µM. For the same sequence, the Kd [6, 32] was no less than 20 µM, the Kd [20, 32] was no less than 20 µM and the Kd [21, 32] was no less than 20 µM. The Kd [22, 32] was no less than 20 µM, the Kd [7, 32] was no less than 20 µM and the Kd [25] was 0.0044 µM. For the same sequence, the Kd [23, 32] was no less than 20 µM, the Kd [8, 32] was no less than 20 µM and the Kd [2, 32] was no less than 20 µM. The Kd [26] was no less than 20 µM, the Kd [9, 32] was no less than 20 µM and the Kd [24, 32] was no less than 20 µM. It also gave a Kd [10, 32] of no less than 20 µM and a Kd [27] of 0.683 µM.

For LPKRSVMLI, the IC50 [14, 33] was no less than 93 µM, the IC50 [3, 33] was 12.9 µM and the IC50 [28] was 6.45 µM.

Reference: the Immune Epitope Database (IEDB)
